As a reminder, the stoichiometry N is a count of units in the complex or per binding partner.

This passage reports stoichiometry N results from publication PMC4359589.

For the assay, the target named is VipB (Vibrio cholerae). Briefly: cryo-EM structure.

Turning to VipA (natural protein), the stoichiometry N was 1.
